Experimental data from the Immune Epitope Database (IEDB).

How the values were obtained:
HLA-A*02:01 [1] = test: IEDB peptide-MHC binding, cellular MHC/competitive/fluorescence; filed as Kd, often an IC50 or EC50 that approximates it; ≥ and ≤ were set here for values at or beyond the usual limits of such assays; conditions: source organism: Homo sapiens
HLA-A*02:01 [2] = test: IEDB peptide-MHC binding, purified MHC/competitive/radioactivity; ≥ and ≤ were set here for values at or beyond the usual limits of such assays; conditions: source organism: Homo sapiens
HLA-B*44:02 = test: IEDB peptide-MHC binding, purified MHC/direct/fluorescence; filed as Kd, often an IC50 or EC50 that approximates it; ≥ and ≤ were set here for values at or beyond the usual limits of such assays; conditions: source organism: Giardia lamblia ATCC 50803
HLA-A*31:01 = test: as above; conditions: source organism: Giardia lamblia ATCC 50803
HLA-B*40:01 = test: as above; conditions: source organism: Giardia lamblia ATCC 50803
HLA-A*30:01 = test: as above; conditions: source organism: Giardia lamblia ATCC 50803
HLA-A*26:01 [3] = test: as above; conditions: source organism: Giardia lamblia ATCC 50803
HLA-A*01:01 = test: as above; conditions: source organism: Giardia lamblia ATCC 50803
HLA-B*15:01 [4] = test: as above; conditions: source organism: Giardia lamblia ATCC 50803
HLA-B*07:02 = test: as above; conditions: source organism: Giardia lamblia ATCC 50803
HLA-A*69:01 [5] = test: as above; conditions: source organism: Giardia lamblia ATCC 50803
HLA-B*08:01 = test: as above; conditions: source organism: Giardia lamblia ATCC 50803
HLA-B*58:01 = test: as above; conditions: source organism: Giardia lamblia ATCC 50803
HLA-B*27:05 = test: as above; conditions: source organism: Giardia lamblia ATCC 50803
HLA-A*11:01 = test: as above; conditions: source organism: Giardia lamblia ATCC 50803
HLA-A*24:03 = test: as above; conditions: source organism: Giardia lamblia ATCC 50803
HLA-A*03:01 [6] = test: as above; conditions: source organism: Giardia lamblia ATCC 50803
HLA-A*02:01 [7] = test: as above; conditions: source organism: Giardia lamblia ATCC 50803
HLA-B*18:01 = test: IEDB peptide-MHC binding, purified MHC/competitive/fluorescence; filed as Kd, often an IC50 or EC50 that approximates it; ≥ and ≤ were set here for values at or beyond the usual limits of such assays
HLA-A*02:19 = test: as above
HLA-A*02:03 = test: as above; conditions: source organism: Yersinia pestis Nepal516
HLA-A*25:01 = test: as above; conditions: source organism: Yersinia pestis Nepal516
HLA-B*39:01 = test: as above
HLA-B*15:17 = test: as above; conditions: source organism: Yersinia pestis Nepal516
HLA-A*29:02 = test: as above
HLA-B*27:03 = test: as above
HLA-B*57:01 = test: as above
HLA-A*26:01 [8] = test: as above
HLA-B*15:01 [9] = test: as above; conditions: source organism: Yersinia pestis Nepal516
HLA-A*02:11 = test: as above
HLA-A*69:01 [10] = test: as above
HLA-A*68:02 = test: as above
HLA-A*02:12 = test: as above
HLA-B*46:01 = test: as above
HLA-B*51:01 = test: as above; conditions: source organism: Yersinia pestis Nepal516
HLA-A*03:01 [11] = test: as above
HLA-A*02:01 [12] = test: as above; conditions: source organism: Yersinia pestis Nepal516
HLA-A*02:16 = test: as above; conditions: source organism: Yersinia pestis Nepal516
HLA-A*80:01 = test: as above; conditions: source organism: Yersinia pestis Nepal516
HLA-A*03:19 = test: as above; conditions: source organism: Cryptosporidium parvum Iowa II
HLA-B*45:06 = test: as above
HLA-B*15:42 = test: as above
HLA-B*27:20 = test: as above; conditions: source organism: Cryptosporidium parvum Iowa II
HLA-B*83:01 = test: as above
HLA-A*32:15 = test: as above; conditions: source organism: Entamoeba histolytica HM-1:IMSS
HLA-C*14:02 = test: as above; conditions: source organism: Entamoeba histolytica HM-1:IMSS
HLA-A*68:23 = test: as above; conditions: source organism: Entamoeba histolytica HM-1:IMSS
HLA-C*15:02 = test: IEDB peptide-MHC binding, purified MHC/direct/fluorescence; filed as Kd, often an IC50 or EC50 that approximates it; ≥ and ≤ were set here for values at or beyond the usual limits of such assays; conditions: source organism: Entamoeba histolytica HM-1:IMSS
[13] = source organism: Yersinia pestis Nepal516
[14] = source organism: Cryptosporidium parvum Iowa II
[15] = source organism: Entamoeba histolytica HM-1:IMSS

KLVVVGAGGV
Kd (HLA-A*02:01 [1]): ≥ 156 µM

KMDSFLDMQL
IC50 (HLA-A*02:01 [2]): 0.0114 µM

KTPWDRFCK
Kd (HLA-B*44:02): ≥ 20 µM | Kd (HLA-A*31:01): 0.0957 µM | Kd (HLA-B*40:01): ≥ 20 µM | Kd (HLA-A*30:01): 0.0218 µM | Kd (HLA-A*26:01 [3]): ≥ 20 µM | Kd (HLA-A*01:01): ≥ 20 µM | Kd (HLA-B*15:01 [4]): ≥ 20 µM | Kd (HLA-B*07:02): ≥ 20 µM | Kd (HLA-A*69:01 [5]): ≥ 20 µM | Kd (HLA-B*08:01): ≥ 20 µM | Kd (HLA-B*58:01): ≥ 20 µM | Kd (HLA-B*27:05): ≥ 20 µM | Kd (HLA-A*11:01): 0.0641 µM | Kd (HLA-A*24:03): 6.93 µM | Kd (HLA-A*03:01 [6]): 3.63 µM | Kd (HLA-A*02:01 [7]): ≥ 20 µM

LELIGNAES
Kd (HLA-B*18:01; [13]): 0.921 µM | Kd (HLA-A*02:19; [13]): ≥ 20 µM | Kd (HLA-A*02:03): ≥ 20 µM | Kd (HLA-A*25:01): ≥ 20 µM | Kd (HLA-B*39:01; [13]): ≥ 20 µM | Kd (HLA-B*15:17): ≥ 20 µM | Kd (HLA-A*29:02; [13]): ≥ 20 µM | Kd (HLA-B*27:03; [13]): ≥ 20 µM | Kd (HLA-B*57:01; [13]): ≥ 20 µM | Kd (HLA-A*26:01 [8]; [13]): ≥ 20 µM | Kd (HLA-B*15:01 [9]): ≥ 20 µM | Kd (HLA-A*02:11; [13]): ≥ 20 µM | Kd (HLA-A*69:01 [10]; [13]): ≥ 20 µM | Kd (HLA-A*68:02; [13]): ≥ 20 µM | Kd (HLA-A*02:12; [13]): ≥ 20 µM | Kd (HLA-B*46:01; [13]): ≥ 20 µM | Kd (HLA-B*51:01): ≥ 20 µM | Kd (HLA-A*03:01 [11]; [13]): ≥ 20 µM | Kd (HLA-A*02:01 [12]): ≥ 20 µM | Kd (HLA-A*02:16): ≥ 20 µM | Kd (HLA-A*80:01): ≥ 20 µM

RIYKRSLKL
Kd (HLA-B*18:01; [14]): ≥ 20 µM | Kd (HLA-A*02:19; [14]): ≥ 20 µM | Kd (HLA-B*39:01; [14]): ≥ 20 µM | Kd (HLA-A*03:19): 0.0141 µM | Kd (HLA-B*45:06; [14]): ≥ 5 µM | Kd (HLA-A*29:02; [14]): ≥ 20 µM | Kd (HLA-B*27:03; [14]): ≥ 20 µM | Kd (HLA-B*57:01; [14]): ≥ 20 µM | Kd (HLA-B*15:42; [14]): 2.19 µM | Kd (HLA-A*26:01 [8]; [14]): ≥ 20 µM | Kd (HLA-A*02:11; [14]): ≥ 20 µM | Kd (HLA-B*27:20): 0.0293 µM | Kd (HLA-A*69:01 [10]; [14]): ≥ 20 µM | Kd (HLA-A*68:02; [14]): ≥ 20 µM | Kd (HLA-A*02:12; [14]): ≥ 20 µM | Kd (HLA-B*83:01; [14]): ≥ 5 µM | Kd (HLA-B*46:01; [14]): ≥ 20 µM | Kd (HLA-A*03:01 [11]; [14]): 0.0189 µM

YIISTHYQF
Kd (HLA-B*45:06; [15]): ≥ 5 µM | Kd (HLA-A*29:02; [15]): 0.0003 µM | Kd (HLA-B*15:42; [15]): ≥ 5 µM | Kd (HLA-A*32:15): 0.213 µM | Kd (HLA-C*14:02): 0.158 µM | Kd (HLA-B*83:01; [15]): 5.79 µM | Kd (HLA-A*68:23): 0.204 µM | Kd (HLA-C*15:02): 1.94 µM
